For assay [1], the target named is T1, ELP-N (construct 5).
T1 construct: also called ELP intein N-fragment
Put plainly: co-precipitation with ELP-N by ammonium sulfate.

Assay [2] has as its target T2, NC1A-CBD (construct 12).
T2 construct: free in solution in the kinetic assays
Put plainly: capture from E. coli lysate on chitin-bound NC1A-CBD, 0.5 mM ZnCl2, SDS-PAGE densitometry.
Experimental: Sample purification via SIRP (FIG. 14): A disposable column containing 150 μL chitin resin was loaded with soluble lysate containing NC1A-CBD in Buffer A (0.5 M NaCl, 10 mM Tris-HCl, pH 8.0) and washed 4 times with 10 column volumes (CV) of Buffer B (0.5 M NaCl, 50 mM NaPOi, pH 6.0). All loading and washing steps were performed in batch phase. The last wash was supplemented with 0.5 mM ZnCl₂. […] The column was subsequently washed with 10 CV of Buffer B with ZnCl₂ (0.5 mM) and finally incubated in 4 CV of Buffer A containing 50 mM DTT at room temperature for 30 min or at 6° C. for 3 h.

Assay [3] concerns the target T1, ELP-N (construct 5). Put plainly: lysates mixed 10 min at room temperature, 0.4 M ammonium sulfate precipitation of the ELP complex, SDS-PAGE.
Assay [4] addresses T2, NC1A-CBD (construct 12). Put plainly: cell-based or functional assay.

B1: C*-CAT (construct 9) (other)
chain: MIKIATRKYLGKQNVYGIGVERDHNFALKNGFIASNCFNASMEKKITGYTTVDISQWHRKEHFEAFQSVAQCTYNQTVQLDITAFLKTVKKNKHKFYPAFIHILARLMNAHPEFRMAMKDGELVIWDSVHPCYTVFHEQTETFSSLWSEYHDDFRQFLHIYSQDVACYGENLAYFPKGFIENMFFVSANPWVSFTSFDLNVANMDNFFAPVFTMGKYYTQGDKVLMPLAIQVHHAVCDGFHVGRMLNELQQYCDEWQGGALEHHHHHH
notes: also called C*-chloramphenicol acetyl transferase
As to B1, the binding result with ELP-N (construct 5) [1] is given as “binds”.

B2: C*-PTDH (construct 6) (other)
chain: MIKIATRKYLGKQNVYGIGVERDHNFALKNGFIASNCFNASMLPKLVITHRVHEEILQLLAPHCELITNQTDSTLTREEILRRCRDAQAMMAFMPDRVDADFLQACPELRVIGCALKGFDNFDVDACTARGVWLTFVPDLLTVPTAELAIGLAVGLGRHLRAADAFVRSGKFRGWQPRFYGTGLDNATVGFLGMGAIGLAMADRLQGWGATLQYHARKALDTQTEQRLGLRQVACSELFASSDFILLALPLNADTLHLVNAELLALVRPGALLVNPCRGSVVDEAAVLAALERGQLGGYAADVFEMEDWARADRPQQIDPALLAHPNTLFTPHIGSAVRAVRLEIERCAAQNILQALAGERPINAVNRLPKANPAADLEHHHHHH
notes: also called NpuDnaE C-fragment Asp118Gly fused to phosphite dehydrogenase
With B2, the “molar ratio of bound C*-POI to NC1A-CBD” value in the assay with NC1A-CBD (construct 12) [2] worked out at 0.35 molar ratio. Besides, the binding result in the assay with ELP-N (construct 5) [3] is “binds”. Besides, in the assay with NC1A-CBD (construct 12) [4], the “percent of PTDH cleaved from C*-PTDH within 30 seconds, 1:1 molar ratio, 50 mM DTT, 22 C and 6 C” value was approximately 50%.
